In paper PMC8605023:

What was measured:
[1] = target: ATG9A FITC-…
[2] = target: SQSTM1 FITC-…
[3] = target: FITC-SQSTM1 peptide 335-344 (human)
USP7 (human) = USP7 (human) (UniProt Q93009)
AP2M1 (human) = AP2M1 (human) (UniProt Q96CW1)
[4] = target: G3BP2 NTF2 domain (human) (UniProt Q9UN86)
[5] = target: G3BP1 NTF2 domain (human) (UniProt Q13283)
[6] = target: MAP1LC3C ATG8 domain (human) (UniProt Q9BXW4)
USP7 MATH = experiment: FP
[7] = target: ATG8 domain of MAP1LC3C (human) (UniProt Q9BXW4); experiment: FP
Sequence of ATG8 domain of MAP1LC3C (human) (Q9BXW4 whole entry, the tested form may be a part): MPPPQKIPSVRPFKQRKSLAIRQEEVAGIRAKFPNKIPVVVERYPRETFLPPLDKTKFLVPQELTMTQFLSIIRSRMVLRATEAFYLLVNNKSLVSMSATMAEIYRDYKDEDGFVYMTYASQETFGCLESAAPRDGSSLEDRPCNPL

[8] = target: FITC-MDM2 peptide (human)

Sequence of G3BP2 NTF2 domain (human) (Q9UN86 11-133): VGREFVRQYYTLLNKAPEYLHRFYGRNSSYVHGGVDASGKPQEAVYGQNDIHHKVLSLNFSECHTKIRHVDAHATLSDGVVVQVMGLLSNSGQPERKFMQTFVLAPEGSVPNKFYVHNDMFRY
Sequence of AP2M1 (human) (Q96CW1 whole entry, the tested form may be a part): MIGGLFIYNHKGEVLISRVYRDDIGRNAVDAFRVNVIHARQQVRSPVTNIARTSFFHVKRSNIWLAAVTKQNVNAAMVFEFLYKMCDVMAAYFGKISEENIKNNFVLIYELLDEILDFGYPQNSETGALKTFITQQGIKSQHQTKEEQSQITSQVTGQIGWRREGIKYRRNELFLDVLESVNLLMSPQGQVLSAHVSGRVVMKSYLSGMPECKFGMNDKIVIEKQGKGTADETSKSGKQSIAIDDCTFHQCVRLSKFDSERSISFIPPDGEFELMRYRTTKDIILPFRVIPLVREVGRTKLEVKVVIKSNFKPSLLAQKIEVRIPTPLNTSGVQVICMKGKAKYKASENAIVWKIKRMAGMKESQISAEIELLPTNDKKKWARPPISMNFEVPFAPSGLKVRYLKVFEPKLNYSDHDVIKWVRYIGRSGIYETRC
Sequence of USP7 (human) (Q93009 whole entry): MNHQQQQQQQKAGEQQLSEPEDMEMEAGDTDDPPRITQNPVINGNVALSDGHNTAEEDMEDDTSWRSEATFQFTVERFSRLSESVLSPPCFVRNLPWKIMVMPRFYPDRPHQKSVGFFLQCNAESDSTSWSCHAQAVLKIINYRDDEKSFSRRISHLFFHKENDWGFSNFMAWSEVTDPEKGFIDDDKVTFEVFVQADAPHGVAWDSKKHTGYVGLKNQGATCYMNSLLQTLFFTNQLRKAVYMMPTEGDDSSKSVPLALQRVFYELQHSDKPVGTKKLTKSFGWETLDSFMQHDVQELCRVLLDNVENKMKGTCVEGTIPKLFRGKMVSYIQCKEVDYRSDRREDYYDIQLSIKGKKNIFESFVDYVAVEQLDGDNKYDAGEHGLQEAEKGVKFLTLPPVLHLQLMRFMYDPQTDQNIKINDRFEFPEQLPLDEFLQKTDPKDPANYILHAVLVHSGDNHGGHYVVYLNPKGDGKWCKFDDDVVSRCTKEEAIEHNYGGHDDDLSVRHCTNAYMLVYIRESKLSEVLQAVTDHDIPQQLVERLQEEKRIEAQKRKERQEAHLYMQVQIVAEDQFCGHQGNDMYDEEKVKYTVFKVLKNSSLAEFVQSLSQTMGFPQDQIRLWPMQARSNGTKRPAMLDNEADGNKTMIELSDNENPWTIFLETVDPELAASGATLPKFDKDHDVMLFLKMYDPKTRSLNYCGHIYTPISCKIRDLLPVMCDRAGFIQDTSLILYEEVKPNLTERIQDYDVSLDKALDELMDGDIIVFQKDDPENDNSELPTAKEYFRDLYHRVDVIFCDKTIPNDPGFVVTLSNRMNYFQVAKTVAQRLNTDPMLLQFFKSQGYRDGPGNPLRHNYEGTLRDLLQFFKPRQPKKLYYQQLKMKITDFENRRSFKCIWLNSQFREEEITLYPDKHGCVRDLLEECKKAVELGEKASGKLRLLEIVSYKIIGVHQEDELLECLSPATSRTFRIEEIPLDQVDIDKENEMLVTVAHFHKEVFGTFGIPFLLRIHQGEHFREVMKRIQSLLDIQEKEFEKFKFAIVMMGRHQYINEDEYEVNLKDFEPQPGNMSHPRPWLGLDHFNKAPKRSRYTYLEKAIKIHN
Sequence of G3BP1 NTF2 domain (human) (Q13283 11-133): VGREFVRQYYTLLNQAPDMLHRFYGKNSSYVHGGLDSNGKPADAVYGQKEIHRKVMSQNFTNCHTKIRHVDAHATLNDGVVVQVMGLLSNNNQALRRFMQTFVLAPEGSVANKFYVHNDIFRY
Sequence of MAP1LC3C ATG8 domain (human) (Q9BXW4 1-126): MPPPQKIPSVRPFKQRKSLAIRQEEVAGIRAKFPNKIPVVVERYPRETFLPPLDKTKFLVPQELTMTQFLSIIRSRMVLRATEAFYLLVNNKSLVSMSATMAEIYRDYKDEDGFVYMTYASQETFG

Substance: AP2M1 (from UniProt Q96CW1 1-435) (domain or fragment)
- Kd [1]: 1100 nM

Substance: MAP1LC3C ATG8 domain (from UniProt Q9BXW4 1-126) (domain or fragment)
- Kd [2]: 1100 nM
- Kd [3]: 1100 nM

Substance: N peptide 206-220 (Sars-CoV)
- IC50 (USP7 (human)): 1500 µM
- Ki (USP7 (human)): 220 µM

Substance: N peptide 353-367 (Sars-CoV2/Sars-CoV)
- IC50 (AP2M1 (human)): 1.53 mM
- Ki (AP2M1 (human)): 530 µM

Substance: N peptide 406-422 (Sars-CoV)
- IC50 (USP7 (human)): 690 µM
- Ki (USP7 (human)): 96 µM

Substance: NSP1 peptide 161-177 (Sars-CoV)
- IC50 (USP7 (human)): 2000 µM
- Ki (USP7 (human)): 280 µM

Substance: NSP3 peptide 1785-1796 (SFV, Semliki-Forest-Virus)
- IC50 [4]: 13 µM
- IC50 [5]: 23 µM

Substance: NSP3 peptide 1785-1809 (SFV, Semliki-Forest-Virus)
- IC50 [4]: 0.0019 µM
- Ki [4]: 150 nM
- IC50 [5]: 0.0044 µM

Substance: NSP3 peptide 1796-1809 (SFV, Semliki-Forest-Virus)
- IC50 [4]: 11 µM

Substance: NSP3 peptide 1996-2011 (Sars-CoV)
- IC50 [6]: 200 µM
- Ki [6]: 28 µM
- IC50 (USP7 (human)): 210 µM
- Ki (USP7 (human)): 29 µM

Substance: NSP4 peptide 3248-3263 (Sars-CoV2/Sars-CoV)
- IC50 (USP7 (human)): 480 µM
- Ki (USP7 (human)): 67 µM

Substance: NSP14 peptide 6498-6512 (Mers)
- Ki (AP2M1 (human)): 3 µM

Substance: SARS-CoV N 205-219
- Kd (USP7 MATH): 220 µM

Substance: SARS-CoV N 405-419
- Kd (USP7 MATH): 96 µM

Substance: SARS-CoV NSP1 161-176
- Kd (USP7 MATH): 280 µM

Substance: SARS-CoV NSP3 2019-2034
- Kd (USP7 MATH): 29 µM

Substance: SARS-CoV NSP3 2019-2038
- Kd [7]: 28 µM

Substance: SARS-CoV NSP4 3248-3263
- Kd (USP7 MATH): 67 µM

Substance: SARS-CoV-2 N 405-419
- Kd (USP7 MATH): 150 µM

Substance: SARS-CoV-2 NSP3 2019-2034
- Kd (USP7 MATH): 37 µM

Substance: SARS-CoV-2 NSP3 2019-2038
- Kd [7]: 210 µM

Substance: SARS-CoV-2 NSP4 3248-3263
- Kd (USP7 MATH): 67 µM

Substance: USP7 (from UniProt Q93009 1-1102) (domain or fragment)
- Kd [8]: 490 nM
